Test results published in article PMC4327562, “Emergence of terpene cyclization in Artemisia annua” (Nature Communications, 2015).

Test system: CC(C)=CCC/C(C)=C/CC/C(C)=C/CO[P@@](=O)(O)OP(=O)(O)O
Test: purified protein
Conditions: 5 mM MgCl2, pH 7.0, 30 °C, inorganic pyrophosphatase coupled

Sequence of (E)-β-farnesene synthase (BFS), A. annua BFS (Artemisia annua) (chain, as listed by the source): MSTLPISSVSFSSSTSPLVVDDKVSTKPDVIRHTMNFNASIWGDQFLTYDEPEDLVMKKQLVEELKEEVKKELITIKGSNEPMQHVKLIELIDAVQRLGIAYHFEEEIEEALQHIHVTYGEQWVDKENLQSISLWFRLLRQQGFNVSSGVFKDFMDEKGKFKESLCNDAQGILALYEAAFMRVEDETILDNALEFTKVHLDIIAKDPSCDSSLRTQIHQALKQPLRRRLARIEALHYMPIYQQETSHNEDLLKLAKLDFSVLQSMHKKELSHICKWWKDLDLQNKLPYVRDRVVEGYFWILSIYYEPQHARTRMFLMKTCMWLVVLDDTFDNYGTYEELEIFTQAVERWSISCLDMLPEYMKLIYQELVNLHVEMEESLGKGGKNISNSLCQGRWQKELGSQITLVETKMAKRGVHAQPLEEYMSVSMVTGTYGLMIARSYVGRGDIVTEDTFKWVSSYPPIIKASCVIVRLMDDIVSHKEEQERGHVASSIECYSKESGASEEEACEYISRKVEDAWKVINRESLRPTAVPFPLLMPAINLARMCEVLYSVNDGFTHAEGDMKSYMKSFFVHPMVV

## (E)-β-farnesene synthase (BFS), A. annua BFS (Artemisia annua)
  Km: 16.19 µM
  kcat: 0.17 s⁻¹
  kcat/Km: 10500 M⁻¹ s⁻¹
